Substitutions are numbered along the chain they refer to. Bridge positions count the residues as written; N and C are the ends. Ends that are not written are not given here.
T1: N-terminally His6-tagged AspH_(315–758) (human aspartate/asparagine-β-hydroxylase, TPR and oxygenase domains) (human, UniProt Q12797 315-758)
T1 construct: human aspartate/asparagine-β-hydroxylase (AspH), residues 315-758: TPR domain (aa 330-555), hinge-loop region (aa 556-577) and 2OG oxygenase domain; pET-28a(+) construct; crystallised with Mn(II) in place of Fe(II) and N-oxalylglycine (NOG); also called AspH-TPR-Ox; His6-AspH_(315–758); not shown: His6, N-terminal, kept
T1 sequence (looked up): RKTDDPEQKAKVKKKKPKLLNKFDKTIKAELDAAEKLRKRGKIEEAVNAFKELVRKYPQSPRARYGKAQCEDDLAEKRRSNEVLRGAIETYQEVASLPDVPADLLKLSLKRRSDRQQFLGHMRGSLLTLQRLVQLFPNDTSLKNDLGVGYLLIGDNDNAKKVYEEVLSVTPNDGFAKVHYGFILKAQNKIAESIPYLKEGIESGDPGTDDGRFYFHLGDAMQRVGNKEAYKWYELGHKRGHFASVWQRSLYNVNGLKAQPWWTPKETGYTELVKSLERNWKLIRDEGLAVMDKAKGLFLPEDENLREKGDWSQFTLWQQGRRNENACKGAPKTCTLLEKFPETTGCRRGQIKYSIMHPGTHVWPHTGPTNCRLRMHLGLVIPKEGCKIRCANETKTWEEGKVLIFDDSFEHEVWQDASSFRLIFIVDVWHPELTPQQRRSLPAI

B1: hFX EGF1_(39mer), N-terminal EGF-like domain of human coagulation factor X (aa 86–124) (peptide, UniProt P00742 86-124, looked up)
peptide: DGDQCETSPCQNQGKCKDGLGEYTCTCLEGFEGKNCELF
modifications: disulfide 27-36; not fully specified (C-terminus); also: mixture of canonical (Cys1–3, 2–4) and non-canonical (Cys1–2, 3–4) isomers, crystal: Cys101–Cys110
notes: human coagulation factor X, first EGF-like domain, aa 86-124; The peptide batch is a mixture of disulfide isomers; also called NC_(39mer) peptide (the non-canonical disulfide isomer seen in the crystal); 39-residue fragment of hFX EGF1
B2: NC-4Ser_(39mer), hFX EGF1_(39mer) with cysteines 1, 2, 5 and 6 (aa 90, 95, 112 and 121) replaced by serines (peptide, UniProt P00742 86-124, looked up)
peptide: B1 peptide with C5S, C10S, C27S, C36S
modifications: disulfide 16-25
notes: human coagulation factor X, first EGF-like domain, aa 86-124, with Cys90, 95, 112 and 121 substituted for Ser; also called NC-Ser_(39mer); NC-4Ser_(39mer) peptide; source: synthetic peptide (GL Biochem (Shanghai) Ltd, single disulfide isomer)
B3: NC_(26mer), truncated 26mer hFX EGF1 substrate (aa 86–111) with the non-canonical disulfide arrangement (Cys1–2, 3–4) (peptide, UniProt P00742 86-111, looked up)
peptide: DGDQCETSPCQNQGKCKDGLGEYTCT
modifications: disulfide 5-10, 16-25
notes: human coagulation factor X, first EGF-like domain, aa 86-111, lacking the Cys5–6 disulfide-forming residues; also called NC_(26mer) peptide; source: synthetic peptide (GL Biochem (Shanghai) Ltd, orthogonal cysteine protection, single disulfide isomer)

What follows are binders tested against T1, N-terminally His6-tagged AspH_(315–758) … (assay: crystal structure; N-terminally His6-tagged AspH_(315–758) (18 mg/mL in 50 mM HEPES, pH 7.5) mixed with 1 mM MnCl2, 2 mM N-oxalylglycine and the AspH-substrate; co-crystallised by vapour diffusion at 4 °C in sitting drops). Conditions: both partners purified.

Row | binding result | Binder
1 | binds | B1
2 | binds | B2
3 | binds | B3

From publication PMC6817910, “Aspartate/asparagine-β-hydroxylase crystal structures reveal an unexpected epidermal growth factor-like domain substrate disulfide pattern” (Nature Communications, 2019)
